Assay results taken from patent publication US20110300158A1 (GlaxoSmithKline, published 2011).
Numbering of substitutions follows the chain as printed.

Legend:
Rat Serum Albumin [1] = target: T1, Rat Serum Albumin (rat, UniProt P02770 25-608); assay: SPR (BIAcore), DOM1m-21-23 fusion against unfused dAb
T1 construct: also called RSA; rat SA

Rat Serum Albumin [2] = target: T1, Rat Serum Albumin; assay: SPR (BIAcore), DOM1m-21-23 fusion; albumin taken as RSA from the sentence before; fused to DOM1m21-23
Rat Serum Albumin [3] = target: T1, Rat Serum Albumin; assay: SPR (BIAcore)
Description: (§1) Binding to HSA, CSA, MSA and RSA by BIAcore was confirmed using purified protein at 3 concentrations 1 μM, 500 nM and 50 nM.

Human Serum Albumin [4] = target: T2, Human Serum Albumin (human, UniProt P02768 25-609); assay: SPR (BIAcore)
T2 construct: immobilised on CM5 chips; also called HSA; human SA
Description: as §1

mouse serum albumin [5] = target: T3, mouse serum albumin (mouse, UniProt P07724 25-608); assay: SPR (BIAcore)
T3 construct: also called MSA; mouse SA
Description: as §1

[6] = target: T4, Cynomolgus monkey Serum Albumin (Cynomolgus monkey, UniProt A2V9Z4 25-608); assay: SPR (BIAcore)
T4 construct: also called CSA; cyno SA
Description: as §1

Rat Serum Albumin [7] = target: T1, Rat Serum Albumin; assay: SPR (BIAcore), second independent experiment
Human Serum Albumin [8] = target: T2, Human Serum Albumin; assay: SPR (BIAcore), second independent experiment
mouse serum albumin [9] = target: T3, mouse serum albumin; assay: SPR (BIAcore), second independent experiment
[10] = target: T4, Cynomolgus monkey Serum Albumin; assay: SPR (BIAcore), second independent experiment

T1 sequence (P02770 25-608 limits assumed): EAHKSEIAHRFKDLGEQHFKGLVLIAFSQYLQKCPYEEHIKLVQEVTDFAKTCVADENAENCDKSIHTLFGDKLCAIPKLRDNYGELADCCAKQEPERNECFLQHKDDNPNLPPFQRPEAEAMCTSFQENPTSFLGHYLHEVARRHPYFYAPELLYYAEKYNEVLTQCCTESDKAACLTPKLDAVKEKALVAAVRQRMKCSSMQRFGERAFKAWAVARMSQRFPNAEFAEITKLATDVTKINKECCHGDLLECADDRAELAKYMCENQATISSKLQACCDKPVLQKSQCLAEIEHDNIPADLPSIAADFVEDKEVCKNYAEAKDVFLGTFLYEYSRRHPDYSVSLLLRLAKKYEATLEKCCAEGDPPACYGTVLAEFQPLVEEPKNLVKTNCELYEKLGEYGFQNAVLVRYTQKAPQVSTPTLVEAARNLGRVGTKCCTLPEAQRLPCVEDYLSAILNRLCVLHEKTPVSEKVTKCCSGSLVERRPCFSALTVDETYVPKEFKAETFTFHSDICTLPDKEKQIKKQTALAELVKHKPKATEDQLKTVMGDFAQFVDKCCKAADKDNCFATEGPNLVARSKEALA
T4 sequence (A2V9Z4 25-608 limits assumed): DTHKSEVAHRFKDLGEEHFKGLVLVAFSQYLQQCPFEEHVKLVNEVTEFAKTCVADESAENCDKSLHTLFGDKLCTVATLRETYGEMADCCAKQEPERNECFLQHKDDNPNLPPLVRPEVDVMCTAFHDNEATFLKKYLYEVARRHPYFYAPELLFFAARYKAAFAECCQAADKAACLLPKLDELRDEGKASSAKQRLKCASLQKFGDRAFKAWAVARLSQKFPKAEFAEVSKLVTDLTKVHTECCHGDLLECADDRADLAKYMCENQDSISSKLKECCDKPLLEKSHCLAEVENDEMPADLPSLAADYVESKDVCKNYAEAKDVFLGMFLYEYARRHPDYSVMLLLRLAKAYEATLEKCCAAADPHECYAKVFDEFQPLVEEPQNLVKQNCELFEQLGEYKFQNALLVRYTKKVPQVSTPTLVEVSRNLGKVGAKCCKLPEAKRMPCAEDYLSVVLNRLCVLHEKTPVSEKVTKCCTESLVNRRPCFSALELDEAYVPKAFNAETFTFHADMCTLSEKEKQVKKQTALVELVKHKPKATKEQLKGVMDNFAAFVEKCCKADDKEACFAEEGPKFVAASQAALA
T3 sequence (P07724 25-608 limits assumed): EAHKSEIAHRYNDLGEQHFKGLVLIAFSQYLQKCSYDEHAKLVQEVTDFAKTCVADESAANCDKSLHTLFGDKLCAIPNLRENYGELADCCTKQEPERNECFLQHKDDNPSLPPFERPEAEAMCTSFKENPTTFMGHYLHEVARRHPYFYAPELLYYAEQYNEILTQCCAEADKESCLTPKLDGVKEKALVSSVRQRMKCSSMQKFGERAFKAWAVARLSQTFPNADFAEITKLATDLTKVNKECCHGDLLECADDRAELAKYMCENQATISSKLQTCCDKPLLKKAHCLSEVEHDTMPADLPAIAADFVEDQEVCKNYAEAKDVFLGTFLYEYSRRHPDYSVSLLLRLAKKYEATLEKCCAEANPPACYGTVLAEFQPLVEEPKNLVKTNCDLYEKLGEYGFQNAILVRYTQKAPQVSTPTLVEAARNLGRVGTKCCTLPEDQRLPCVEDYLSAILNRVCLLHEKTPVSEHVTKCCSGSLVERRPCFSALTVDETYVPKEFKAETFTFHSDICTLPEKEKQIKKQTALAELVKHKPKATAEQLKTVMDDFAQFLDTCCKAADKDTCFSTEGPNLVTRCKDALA

B1: DOM7h-11-12/DOM1m-21-23 fusion DMS number 5516 (bispecific antibody)
chain: EVQLLESGGGLVQPGGSLRLSCAASGFTFNRYSMGWLRQAPGKGLEWVSRIDSYGRGTYYEDPVKGRFSISRDNSKNTLYLQMNSLRAEDTAVYYCAKISQFGSNAFDYWGQGTQVTVSSASTSGPSDIQMTQSPSSLSASVGDRVTITCRASRPIGTMLSWYQQKPGKAPKLLILFGSRLQSGVPSRFSGSGSGTDFTLTISSLQPEDFATYYCAQAGTHPTTFGQGTKVEIKRAAAEQKLISEEDLN
notes: also called DMS5516
Rat Serum Albumin [1]
  fold decrease in affinity compared to the unfused AlbudAb: 2 fold

B2: DOM7h-11/DOM1m-21-23 fusion DMS number 5515 (bispecific antibody)
chain: B1 chain with M159T, L176W
notes: also called DMS5515; 'the DOM7h-12 clone' when fused
Rat Serum Albumin [2]
  Kd: 2800 nM

B3: DOM7h-11-15/DOM1m-21-23 fusion DMS number 5517 (bispecific antibody)
chain: B1 chain with F177A, G178F
notes: also called DMS5517
Rat Serum Albumin [1]
  fold decrease in affinity compared to the unfused AlbudAb: 2 fold

B4: DOM7h-14-28 (other)
VL: DIQMTQSPSSLSASVGDRVTITCRASQWIGSQLSWYQQKPGKAPKLLIMWRSSLQSGVPSRFSGSGSGTDFTLTISSLQPEDFATYYCAQGAALPKTFGQGTKVEIKR
notes: Vk dAb; tag not included
Rat Serum Albumin [3]
  Kd: 45 nM
  koff: 0.07 s⁻¹
  kon: 2.1e+06 M⁻¹ s⁻¹
Human Serum Albumin [4]
  Kd: 30 nM
  koff: 0.033 s⁻¹
  kon: 1.24e+06 M⁻¹ s⁻¹
Mouse serum albumin [5]
  Kd: 26 nM
  koff: 0.034 s⁻¹
  kon: 1.6e+06 M⁻¹ s⁻¹
[6]
  Kd: 66 nM
  koff: 0.13 s⁻¹
  kon: 2.5e+06 M⁻¹ s⁻¹
Rat Serum Albumin [7]
  Kd: 140 nM
  koff: 0.114 s⁻¹
  kon: 830000 M⁻¹ s⁻¹
Human Serum Albumin [8]
  Kd: 8260 nM
  koff: 0.056 s⁻¹
  kon: 6780 M⁻¹ s⁻¹
Mouse serum albumin [9]
  Kd: 31 nM
  koff: 0.0715 s⁻¹
  kon: 2.28e+06 M⁻¹ s⁻¹
[10]
  Kd: 136 nM
  koff: 0.134 s⁻¹
  kon: 980000 M⁻¹ s⁻¹

B5: DOM7h-14-36 (other)
VL: B4 VL with A92F, A93K, L94K, K96R
notes: Vk dAb; tag not included
Rat Serum Albumin [3]
  Kd: 30 nM
  koff: 0.029 s⁻¹
  kon: 1.55e+06 M⁻¹ s⁻¹
Mouse serum albumin [5]
  Kd: 35 nM
  koff: 0.023 s⁻¹
  kon: 870000 M⁻¹ s⁻¹
Rat Serum Albumin [7]
  Kd: 6120 nM
  koff: 0.0554 s⁻¹
  kon: 9000 M⁻¹ s⁻¹
Human Serum Albumin [8]
  Kd: 1260 nM
  koff: 0.067 s⁻¹
  kon: 54000 M⁻¹ s⁻¹
Mouse serum albumin [9]
  Kd: 33 nM
  koff: 0.0706 s⁻¹
  kon: 2.11e+06 M⁻¹ s⁻¹
[10]
  Kd: 7830 nM
  koff: 0.11 s⁻¹
  kon: 14300 M⁻¹ s⁻¹

B6: DOM7h-11 (other)
VL: DIQMTQSPSSLSASVGDRVTITCRASRPIGTTLSWYQQKPGKAPKLLIWFGSRLQSGVPSRFSGSGSGTDFTLTISSLQPEDFATYYCAQAGTHPTTFGQGTKVEIKR
notes: Parental Vk dAb; also called DOM7h-12
Human Serum Albumin [4]
  Kd: 2800 nM
  koff: 0.641 s⁻¹
  kon: 700000 M⁻¹ s⁻¹

B7: DOM7h-11-15 (other)
VL: B6 VL with T32M, W49L, F50A, G51F
notes: Vk dAb; pDOM5 myc tag not included; also called DOM7-11-15; DOM7h-12-15
[6]
  kon: 5.8e+06 M⁻¹ s⁻¹
